The text below walks through data of article PMC11377297, “Mechanical disengagement of the cohesin ring” (Nature Structural & Molecular Biology, 2023).

The test deals with T1, Smc1^Psm1-SNAP subunit of the fission yeast cohesin tetramer (head-tagged variant, TMR-labelled) (fission yeast, UniProt O94383 1-1228, TMR fluorophore on the SNAP-tag).
T1 construct: Psm1 (Smc1), fission yeast cohesin subunit; source: recombinant, purified as part of the cohesin tetramer; not shown: SNAP-tag, C-terminal, kept
T1 sequence (looked up): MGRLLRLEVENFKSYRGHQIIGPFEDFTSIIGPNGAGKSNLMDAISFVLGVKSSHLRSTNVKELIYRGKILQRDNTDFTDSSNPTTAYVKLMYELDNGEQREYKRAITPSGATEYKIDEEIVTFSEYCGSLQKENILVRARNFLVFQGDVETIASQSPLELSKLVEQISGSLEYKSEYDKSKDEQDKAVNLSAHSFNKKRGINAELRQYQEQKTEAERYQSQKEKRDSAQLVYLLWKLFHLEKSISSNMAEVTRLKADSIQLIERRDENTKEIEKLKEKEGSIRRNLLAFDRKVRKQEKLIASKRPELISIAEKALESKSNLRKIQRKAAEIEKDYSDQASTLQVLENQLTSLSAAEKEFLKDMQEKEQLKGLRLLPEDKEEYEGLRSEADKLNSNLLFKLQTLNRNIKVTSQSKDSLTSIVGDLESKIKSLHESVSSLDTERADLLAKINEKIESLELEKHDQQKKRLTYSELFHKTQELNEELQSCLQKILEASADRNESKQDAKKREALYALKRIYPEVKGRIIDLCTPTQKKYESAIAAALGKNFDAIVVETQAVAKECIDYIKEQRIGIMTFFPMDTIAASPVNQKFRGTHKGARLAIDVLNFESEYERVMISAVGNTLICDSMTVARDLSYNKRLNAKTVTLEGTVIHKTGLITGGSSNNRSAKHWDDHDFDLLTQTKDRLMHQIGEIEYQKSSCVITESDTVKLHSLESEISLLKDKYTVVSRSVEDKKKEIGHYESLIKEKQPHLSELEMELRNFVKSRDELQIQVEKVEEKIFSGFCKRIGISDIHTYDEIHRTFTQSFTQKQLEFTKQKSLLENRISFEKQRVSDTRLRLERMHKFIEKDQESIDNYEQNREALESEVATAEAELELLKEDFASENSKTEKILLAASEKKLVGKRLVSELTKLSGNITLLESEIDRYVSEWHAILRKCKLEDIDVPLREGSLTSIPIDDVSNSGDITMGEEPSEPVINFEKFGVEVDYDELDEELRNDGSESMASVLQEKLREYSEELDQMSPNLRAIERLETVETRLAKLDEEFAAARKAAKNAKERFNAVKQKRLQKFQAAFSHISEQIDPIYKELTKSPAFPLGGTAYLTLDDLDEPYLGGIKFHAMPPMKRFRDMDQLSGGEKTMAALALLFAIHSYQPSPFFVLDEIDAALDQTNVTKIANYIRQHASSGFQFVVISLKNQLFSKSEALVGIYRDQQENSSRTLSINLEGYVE
In words: co-purification of the recombinant complex (SDS-PAGE, Coomassie); purified cohesin complex resolved by SDS-PAGE; purification methods in the Supplementary Information.

B1: Smc3^Psm3-CLIP-biotin subunit of the fission yeast cohesin tetramer (head-tagged variant) (natural protein, UniProt O42649 1-1194, looked up)
chain: MYITKIVIQGFKSYKDYTVIEPLSPHHNVIVGRNGSGKSNFFAAIRFVLSDAYTHLSREERQALLHEGPGATVMSAYVEVTFANADNRFPTGKSEVVLRRTIGLKKDEYSLDKKTVSKTEVINLLESAGFSRSNPYYIVPQGRVTSLTNAKDSERLELLKEVAGTQIYENRRAESNKIMDETIQKSEKIDELLQYIEERLRELEEEKNDLAVYHKKDNERRCLEYAIYSREHDEINSVLDALEQDRIAALERNDDDSGAFIQREERIERIKAEITELNHSLELLRVEKQQNDEDYTNIMKSKVALELQSSQLSRQIEFSKKDESSKLNILSELESKISEKENELSEILPKYNAIVSEADDLNKRIMLLKNQKQSLLDKQSRTSQFTTKKERDEWIRNQLLQINRNINSTKENSDYLKTEYDEMENELKAKLSRKKEIEISLESQGDRMSQLLANITSINERKENLTDKRKSLWREEAKLKSSIENVKDDLSRSEKALGTTMDRNTSNGIRAVKDIAERLKLEGYYGPLCELFKVDNRFKVAVEATAGNSLFHIVVDNDETATQILDVIYKENAGRVTFMPLNKLRPKAVTYPDASDALPLIQYLEFDPKFDAAIKQVFSKTIVCPSIETASQYARSHQLNGITLSGDRSDKKGALTAGYRDYRNSRLDAIKNVKTYQIKFSDLQESLEKCRSEIESFDQKITACLDDLQKAQLSLKQFERDHIPLKDELVTITGETTDLQESMHHKSRMLELVVLELHTLEQQANDLKSELSSEMDELDPKDVEALKSLSGQIENLSHEFDAIIKERAHIEARKTALEYELNTNLYLRRNPLKAEIGSDNRIDESELNSVKRSLLKYENKLQIIKSSSSGLEEQMQRINSEISDKRNELESLEELQHEVATRIEQDAKINERNAAKRSLLLARKKECNEKIKSLGVLPEEAFIKYVSTSSNAIVKKLHKINEALKDYGSVNKKAYEQFNNFTKQRDSLLARREELRRSQESISELTTVLDQRKDEAIERTFKQVAKSFSEIFVKLVPAGRGELVMNRRSELSQSIEQDISMDIDTPSQKSSIDNYTGISIRVSFNSKDDEQLNINQLSGGQKSLCALTLIFAIQRCDPAPFNILDECDANLDAQYRSAIAAMVKEMSKTSQFICTTFRPEMVKVADNFYGVMFNHKVSTVESISKEEAMAFVEG
modifications: biotin on the CLIP-tag
notes: Psm3 (Smc3), fission yeast cohesin subunit; source: recombinant, purified as part of the cohesin tetramer; not shown: CLIP-tag, C-terminal, kept
Turning to B1, the binding result is given as “binds”.
